Earlier results as cited in paper PMC7826847.
Where two headings read alike, the source gives them in different places.

Assays:
Nectin-3 [1] = biological target: Nectin-3 (UniProt Q9NQS3)
Nectin-3 [2] = biological target: Nectin-3 (UniProt Q9NQS3); remark: listed apart in the source

Sequence of Nectin-3 (Q9NQS3 58-404): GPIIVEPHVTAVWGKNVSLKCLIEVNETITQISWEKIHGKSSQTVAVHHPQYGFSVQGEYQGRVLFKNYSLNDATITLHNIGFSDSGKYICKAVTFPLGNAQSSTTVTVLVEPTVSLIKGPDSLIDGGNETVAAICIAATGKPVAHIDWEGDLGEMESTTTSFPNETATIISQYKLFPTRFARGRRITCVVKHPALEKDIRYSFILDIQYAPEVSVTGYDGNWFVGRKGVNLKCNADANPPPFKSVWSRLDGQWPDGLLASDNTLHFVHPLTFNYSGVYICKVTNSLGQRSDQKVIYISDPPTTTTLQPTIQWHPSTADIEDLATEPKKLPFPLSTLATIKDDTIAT
Sequence of Nectin-1 (Q15223 31-355): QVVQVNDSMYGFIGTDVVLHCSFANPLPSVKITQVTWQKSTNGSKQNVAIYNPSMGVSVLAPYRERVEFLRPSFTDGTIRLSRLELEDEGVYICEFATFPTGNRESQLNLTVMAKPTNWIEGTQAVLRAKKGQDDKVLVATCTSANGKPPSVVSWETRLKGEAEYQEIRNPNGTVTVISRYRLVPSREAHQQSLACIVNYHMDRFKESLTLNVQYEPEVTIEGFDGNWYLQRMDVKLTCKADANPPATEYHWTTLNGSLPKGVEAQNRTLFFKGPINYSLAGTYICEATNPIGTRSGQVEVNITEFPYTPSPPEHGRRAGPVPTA
Sequence of Nectin-2 (Q92692 32-360): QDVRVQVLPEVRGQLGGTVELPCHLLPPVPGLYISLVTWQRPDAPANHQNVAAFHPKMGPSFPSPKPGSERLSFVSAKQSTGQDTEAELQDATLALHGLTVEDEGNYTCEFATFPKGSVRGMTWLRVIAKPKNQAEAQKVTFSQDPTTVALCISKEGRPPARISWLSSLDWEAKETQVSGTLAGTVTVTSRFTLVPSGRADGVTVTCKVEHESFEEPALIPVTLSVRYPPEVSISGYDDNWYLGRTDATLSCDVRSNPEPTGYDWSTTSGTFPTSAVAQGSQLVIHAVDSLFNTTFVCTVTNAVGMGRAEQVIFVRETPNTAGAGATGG

Kd (Nectin-3 [1]) [nM]	Kd (Nectin-3 [2]) [nM]	Substance
2.3		Nectin-1 (from UniProt Q15223)
	360	Nectin-2 (from UniProt Q92692)
